Assay [1] deals with NMDA receptor of primary cultures of rat cerebellar granule cells (rat). In words: cell-based or functional assay.
Assay [2] has as its target NMDA receptor of well-washed rat forebrain membranes (rat) (UniProt Q9R1M7). In words: cell-based or functional assay.
Assay [3] shares this target. In words: displacement of [3H]ifenprodil, polyamine-sensitive site. A general note: In a radioligand displacement assay an active substance lowers the binding of a labelled ligand.
For assay [4] the target is unchanged.

Read-outs that look alike come from different tables or passages of the source. A value given as a limit tells only on which side of the number the result lay.

By IC50 is commonly meant the concentration that inhibits the measured activity by half.

Chain of NMDA receptor of well-washed rat forebrain membranes (rat) (Q9R1M7 24-1135): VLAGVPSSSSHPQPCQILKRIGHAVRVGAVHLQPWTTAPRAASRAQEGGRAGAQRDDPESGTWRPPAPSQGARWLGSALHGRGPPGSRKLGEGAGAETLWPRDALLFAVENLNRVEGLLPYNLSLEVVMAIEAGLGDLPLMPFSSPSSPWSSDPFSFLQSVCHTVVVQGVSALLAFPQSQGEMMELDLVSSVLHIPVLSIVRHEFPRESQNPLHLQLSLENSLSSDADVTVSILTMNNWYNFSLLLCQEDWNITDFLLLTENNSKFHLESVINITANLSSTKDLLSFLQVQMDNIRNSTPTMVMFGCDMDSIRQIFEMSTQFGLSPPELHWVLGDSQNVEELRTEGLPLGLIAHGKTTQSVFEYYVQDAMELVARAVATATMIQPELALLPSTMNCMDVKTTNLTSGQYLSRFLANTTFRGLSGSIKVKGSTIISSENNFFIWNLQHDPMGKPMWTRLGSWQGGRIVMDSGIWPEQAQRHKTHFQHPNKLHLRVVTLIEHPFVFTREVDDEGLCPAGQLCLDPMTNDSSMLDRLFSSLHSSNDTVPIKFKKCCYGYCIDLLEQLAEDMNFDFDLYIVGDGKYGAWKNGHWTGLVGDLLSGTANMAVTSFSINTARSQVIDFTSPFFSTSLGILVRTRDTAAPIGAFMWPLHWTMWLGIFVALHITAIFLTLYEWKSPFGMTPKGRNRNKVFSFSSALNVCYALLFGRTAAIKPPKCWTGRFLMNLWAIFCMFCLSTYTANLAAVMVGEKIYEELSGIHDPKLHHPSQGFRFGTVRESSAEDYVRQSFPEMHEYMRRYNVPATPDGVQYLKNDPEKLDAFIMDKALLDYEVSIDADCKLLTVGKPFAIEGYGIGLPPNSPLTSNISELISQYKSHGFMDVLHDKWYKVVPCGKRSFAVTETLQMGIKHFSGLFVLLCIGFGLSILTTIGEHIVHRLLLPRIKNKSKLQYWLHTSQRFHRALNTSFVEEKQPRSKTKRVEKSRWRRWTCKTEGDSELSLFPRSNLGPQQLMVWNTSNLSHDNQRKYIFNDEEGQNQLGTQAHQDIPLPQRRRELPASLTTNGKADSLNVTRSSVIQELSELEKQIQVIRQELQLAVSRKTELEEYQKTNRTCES

On to Conantokin-G (peptide), for which the IC50, inhibition of NMDA-stimulated increases in cyclic GMP formation in assay [1] was 300 nM. In assay [2], the % Inh, spermine-enhanced [3H]MK-801 binding amounted to 100%; the % Sti, [3H]MK-801 binding without spermine was determined as 0%; the IC50, antagonism of Gly-stimulated [3H]MK-801 binding, representative experiment came out at 835 nM; the IC50, inhibition of spermine-enhanced [3H]MK-801 binding, typical experiment was determined as 275 nM. Besides, the IC (µM), inhibition of spermine-enhanced [3H]MK-801 binding in assay [2] came to 0.16 µM. The substance further came in with an IC50 in assay [3] of more than 5 µM. Further, in assay [4], the IC50 was more than 5 µM.

The values above are taken from US20030134799A1.
